# Results reported in publication PMC7954794, “Protein context shapes the specificity of SH3 domain-mediated interactions in vivo” (Nature Communications, 2021).
# B1: SLA1 WT¦WT¦WT (protein, UniProt P32790 1-1244, looked up)
# Actin cytoskeleton-regulatory …: MTVFLGIYRAVYAYEPQTPEELAIQEDDLLYLLQKSDIDDWWTVKKRVIGSDSEEPVGLVPSTYIEEAPVLKKVRAIYDYEQVQNADEELTFHENDVFDVFDDKDADWLLVKSTVSNEFGFIPGNYVEPENGSTSKQEQAPAAAEAPAATPAAAPASAAVLPTNFLPPPQHNDRARMMQSKEDQAPDEDEEGPPPAMPARPTATTETTDATAAAVRSRTRLSYSDNDNDDEEDDYYYNSNSNNVGNHEYNTEYHSWNVTEIEGRKKKKAKLSIGNNKINFIPQKGTPHEWSIDKLVSYDNEKKHMFLEFVDPYRSLELHTGNTTTCEEIMNIIGEYKGASRDPGLREVEMASKSKKRGIVQYDFMAESQDELTIKSGDKVYILDDKKSKDWWMCQLVDSGKSGLVPAQFIEPVRDKKHTESTASGIIKSIKKNFTKSPSRSRSRSRSKSNANASWKDDELQNDVVGSAAGKRSRKSSLSSHKKNSSATKDFPNPKKSRLWVDRSGTFKVDAEFIGCAKGKIHLHKANGVKIAVAADKLSNEDLAYVEKITGFSLEKFKANDGSSSRGTDSRDSERERRRRLKEQEEKERDRRLKERELYELKKARELLDEERSRLQEKELPPIKPPRPTSTTSVPNTTSVPPAESSNNNNSSNKYDWFEFFLNCGVDVSNCQRYTINFDREQLTEDMMPDINNSMLRTLGLREGDIVRVMKHLDKKFGRENIASIPTNATGNMFSQPDGSLNVATSPETSLPQQLLPQTTSPAQTAPSTSAETDDAWTVKPASKSESNLLSKKSEFTGSMQDLLDLQPLEPKKAAASTPEPNLKDLEPVKTGGTTVPAAPVSSAPVSSAPAPLDPFKTGGNNILPLSTGFVMMPMITGGDMLPMQRTGGFVVPQTTFGMQSQVTGGILPVQKTGNGLIPISNTGGAMMPQTTFGAAATVLPLQKTGGGLIPIATTGGAQFPQTSFNVQGQQQLPTGSILPVQKTANGLISANTGVSMPTVQRTGGTMIPQTSFGVSQQLTGGAMMTQPQNTGSAMMPQTSFNAVPQITGGAMMPQTSFNALPQVTGGAMMPLQRTGGALNTFNTGGAMIPQTSFSSQAQNTGGFRPQSQFGLTLQKTGGIAPLNQNQFTGGAMNTLSTGGVLQQQQPQTMNTFNTGGVMQELQMMTTFNTGGAMQQPQMMNTFNTDGIMQQPQMMNTFNTGGAMQQPQQQALQNQPTGFGFGNGPQQSRQANIFNATASNPFGF
# Test system: Sla1 PPIs
# Experiment: DHFR-PCA of Sla1 SH3-swapped, -shuffled or -deleted baits (Fig. 2E, 4B, 4D, S5A)
# Type: cell-based, Saccharomyces cerevisiae
# Source text: The stuffing of YSC84 SH3 rendered the strain sterile and was therefore not used for this study as the assays require crosses. For genes containing two SH3s (BZZ1 and BEM1), a combination of this first stuffer with a second one ([…]) coding for a highly similar linker ([…]) was used, which allowed targeting each SH3 position independently. The two N-terminal domains of SLA1, which are separated by six nucleotides, were stuffed by a single stuffer. Cells containing pCAS were selected via the G418 resistance cassette from the plasmid on YPD plates (YPD + NAT 100 μg/ml (DHFR F[1,2] selection) + G418 200 µg/mL (Bioshop Canada)). Colonies were randomly selected and grown in YPD media without G418 to allow plasmid loss. The correct insertion of the stuffer was validated by PCR and Sanger sequencing. The SH3-swapped, -shuffled, and -mutated strains were constructed following a second CRISPR–Cas9 editing step with the same procedures. The stuffer sequences were targeted by specific gRNAs (one gRNA per stuffer) and replaced by PCR amplified specific SH3 (with 40 bp homology arms) or libraries of mutated SH3 domains for Deep Mutational Scanning (DMS) with 78 bp flanking homology regions. Validation of the SH3 domain insertions was done as we previously described except for DMS libraries (see below).
# The overall DHFR-PCA pipeline is based on Tarassov et al.[43] and the procedures have also been published as a visualized protocol. The screens were performed with robotically manipulated pin tools (BM5-SC1, S&P Robotics Inc.). First, the preys were cherry-picked from 96-well plates to omnitrays in a 384 format on YPD + HPH solid media. Plates were then combined into the 1536 format on YPD + HPH. The array was constituted of 575 preys previously shown to interact physically with at least one SH3-containing protein as reported in BioGRID V3.4.16 along with 40 negative controls. The prey array comprised a border of control strains of two rows and two columns corresponding to the PPI between LSM8-DHFR F[1,2] and CDC39-DHFR F[3]. This double border was used to remove border effects. Preys are present in duplicate at a randomized position in the 1536 array (except for YAL041W which is present four times per array). Baits were crossed with two prey plates, resulting in four independent bait–prey tests for each PPI. Baits were grown in liquid YPD + NAT and then transferred on solid YPD + NAT omnitrays. They were then replicated on YPD + NAT omnitrays in 1536 array format. Mating of DHFR F[1,2] baits with DHFR F[3] preys was done on YPD followed by incubation at 30 °C for 48 h. Two diploid selection steps were performed by replicating the plates on YPD + NAT + HPH and incubating them for 48 h at 30 °C. Pictures were taken at the end of the second diploid selection for quality control. All images were acquired with a EOS Rebel T5i camera (Canon). Finally, the diploid cells were replicated on omnitrays containing solid PCA selection media and incubated for 4 days as a first selection step in a spImager custom robotic platform (S&P Robotics Inc.). Cells were replicated for a second PCA selection step and incubated in the same manner. The last time point of the second PCA selection step was used for the data analysis as in previous studies using this method.
# A separate DHFR-PCA screen was performed for the Sla1 SH3 shuffling experiment, with the same analysis as previously described. Three plates had no detectable level of background, which correspond to the second plate of the three Sla1 SH3 WT re-insertion controls. They were attributed the average of the background of the three first plates of the same baits. The threshold was also determined based on the distribution of the PCA scores of all PPIs and corresponds to the top 2.75% of all colonies detected in this experiment. […] Almost all true PPIs are from four replicates (96.2%). […]
molecule,measurement,setting,value
B1,medrep = log2 median colony size normalized to plate background (PCA score),"prey YAL005C, 4 replicates",4.576
same,medrep = log2 median colony size normalized to plate background (PCA score),"prey YAL005C, 4 replicates, listed as SLA1 WT¦WT¦WT*",5.708
same,medrep = log2 median colony size normalized to plate background (PCA score),"prey YBL007C, 4 replicates",3.858
same,medrep = log2 median colony size normalized to plate background (PCA score),"prey YBL007C, 4 replicates, listed as SLA1 WT¦WT¦WT*",4.787
same,medrep = log2 median colony size normalized to plate background (PCA score),"prey YBR234C, 4 replicates",4.193
same,medrep = log2 median colony size normalized to plate background (PCA score),"prey YBR234C, 4 replicates, listed as SLA1 WT¦WT¦WT*",5.208
same,medrep = log2 median colony size normalized to plate background (PCA score),"prey YCR009C, 2 replicates",2.175
same,medrep = log2 median colony size normalized to plate background (PCA score),"prey YCR030C, 4 replicates",2.158
same,medrep = log2 median colony size normalized to plate background (PCA score),"prey YCR088W, 4 replicates",3.971
same,medrep = log2 median colony size normalized to plate background (PCA score),"prey YCR088W, 4 replicates, listed as SLA1 WT¦WT¦WT*",4.931
same,medrep = log2 median colony size normalized to plate background (PCA score),"prey YDL229W, 4 replicates",4.158
same,medrep = log2 median colony size normalized to plate background (PCA score),"prey YDL229W, 4 replicates, listed as SLA1 WT¦WT¦WT*",5.378
same,medrep = log2 median colony size normalized to plate background (PCA score),"prey YDR129C, 4 replicates",3.756
same,medrep = log2 median colony size normalized to plate background (PCA score),"prey YDR129C, 4 replicates, listed as SLA1 WT¦WT¦WT*",4.737
same,medrep = log2 median colony size normalized to plate background (PCA score),"prey YFL010C, 2 replicates",3.147
same,medrep = log2 median colony size normalized to plate background (PCA score),"prey YFR024C-A, 4 replicates",3.943
same,medrep = log2 median colony size normalized to plate background (PCA score),"prey YFR024C-A, 4 replicates, listed as SLA1 WT¦WT¦WT*",4.815
same,medrep = log2 median colony size normalized to plate background (PCA score),"prey YGL206C, 4 replicates",3.77
same,medrep = log2 median colony size normalized to plate background (PCA score),"prey YGL206C, 4 replicates, listed as SLA1 WT¦WT¦WT*",4.526
same,medrep = log2 median colony size normalized to plate background (PCA score),"prey YGR229C, 4 replicates",2.045
same,medrep = log2 median colony size normalized to plate background (PCA score),"prey YHR016C, 4 replicates",3.008
same,medrep = log2 median colony size normalized to plate background (PCA score),"prey YHR016C, 4 replicates, listed as SLA1 WT¦WT¦WT*",3.247
same,medrep = log2 median colony size normalized to plate background (PCA score),"prey YHR064C, 4 replicates",3.59
same,medrep = log2 median colony size normalized to plate background (PCA score),"prey YHR064C, 4 replicates, listed as SLA1 WT¦WT¦WT*",4.449
same,medrep = log2 median colony size normalized to plate background (PCA score),"prey YIL062C, 4 replicates",3.558
same,medrep = log2 median colony size normalized to plate background (PCA score),"prey YIL062C, 4 replicates, listed as SLA1 WT¦WT¦WT*",4.388
same,medrep = log2 median colony size normalized to plate background (PCA score),"prey YIR006C, 4 replicates",3.754
same,medrep = log2 median colony size normalized to plate background (PCA score),"prey YIR006C, 4 replicates, listed as SLA1 WT¦WT¦WT*",4.634
same,medrep = log2 median colony size normalized to plate background (PCA score),"prey YKL013C, 4 replicates",3.269
same,medrep = log2 median colony size normalized to plate background (PCA score),"prey YKL013C, 4 replicates, listed as SLA1 WT¦WT¦WT*",3.776
same,medrep = log2 median colony size normalized to plate background (PCA score),"prey YKL054C, 4 replicates",2.47
same,medrep = log2 median colony size normalized to plate background (PCA score),"prey YKL054C, 4 replicates, listed as SLA1 WT¦WT¦WT*",3.124
same,medrep = log2 median colony size normalized to plate background (PCA score),"prey YKL117W, 4 replicates",3.846
same,medrep = log2 median colony size normalized to plate background (PCA score),"prey YKL117W, 4 replicates, listed as SLA1 WT¦WT¦WT*",4.725
same,medrep = log2 median colony size normalized to plate background (PCA score),"prey YKL129C, 4 replicates",2.117
same,medrep = log2 median colony size normalized to plate background (PCA score),"prey YLR337C, 4 replicates",3.738
same,medrep = log2 median colony size normalized to plate background (PCA score),"prey YLR337C, 4 replicates, listed as SLA1 WT¦WT¦WT*",4.734
same,medrep = log2 median colony size normalized to plate background (PCA score),"prey YLR370C, 4 replicates",3.494
same,medrep = log2 median colony size normalized to plate background (PCA score),"prey YLR370C, 4 replicates, listed as SLA1 WT¦WT¦WT*",4.461
same,medrep = log2 median colony size normalized to plate background (PCA score),"prey YMR109W, 4 replicates",2.836
same,medrep = log2 median colony size normalized to plate background (PCA score),"prey YMR109W, 4 replicates, listed as SLA1 WT¦WT¦WT*",3.116
same,medrep = log2 median colony size normalized to plate background (PCA score),"prey YNL084C, 4 replicates",3.76
same,medrep = log2 median colony size normalized to plate background (PCA score),"prey YNL084C, 4 replicates, listed as SLA1 WT¦WT¦WT*",4.641
same,medrep = log2 median colony size normalized to plate background (PCA score),"prey YNL138W, 4 replicates",2.038
same,medrep = log2 median colony size normalized to plate background (PCA score),"prey YNL243W, 4 replicates",3.418
same,medrep = log2 median colony size normalized to plate background (PCA score),"prey YNL243W, 4 replicates, listed as SLA1 WT¦WT¦WT*",4.392
same,medrep = log2 median colony size normalized to plate background (PCA score),"prey YOR181W, 4 replicates",3.933
same,medrep = log2 median colony size normalized to plate background (PCA score),"prey YOR181W, 4 replicates, listed as SLA1 WT¦WT¦WT*",4.903
